Here are results for 1 molecule from paper PMC8650744.

In the data set the target is HIV-1 Matrix (MA) WT (HIV-1, UniProt C1JB69 1-131). The data set is described as follows: ITC.

B1: tRNALys3 A7U/U66A (structured_RNA)
RNA: GCCCGGUUAGCUCAGUCGGUAGAGCAUCAGACUUUUAAUCUGAGGGUCCAGGGUUCAAGUCCCUGAUCGGGCGCCA
In the case of B1, the binding signal is 2 fold Kd increase vs WT tRNA.
